Data taken from the supplement of paper PMC6757056.
± gives the standard deviation of the averaged measurements.

B1: library; a variant is named by its letters at N, in order (parent)
chain: GCUGUCACCGGUGUAUUACCCUAGUGGUCGACCGGUCUGAUGAGUCUNNNNNNAGACGAAACAGC

Assays:
hypoxanthine [1] = variants of: B1; test: FACS-Seq fitted mean relative fluorescence mCherry/BFP without ligand (log10 relative fluorescence); ligand: hypoxanthine (xanthine aptamer); higher = higher reporter protein expression; conditions: HEK293T, ligand present: no
Outline: (§1)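 Fluorescence is reported as a normalized fitted mean of sorted-bin read counts. Lentivirally transduced HEK293T libraries (mCherry ribozyme-switch reporter, EF1α-BFP marker) were enriched, treated with or without ligand for 48 h, and sorted into 6 mCherry/BFP bins for MiSeq sequencing of PCR-amplified genomic DNA. The normal fit was on log10(mCherry/BFP), scaled to five spiked-in control ribozymes.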

hypoxanthine [2] = variants of: B1; test: normalized RNA/DNA level with ligand (relative to sTRSVctl = 100) (log10 (% of sTRSVctl)); ligand: hypoxanthine (xanthine aptamer); higher = less ribozyme self-cleavage, higher mRNA level; conditions: ligand concentration (+) RNA-Seq: 5 mM, HEK293T, reporter: mCherry (pCS4076), ligand present: yes
Outline: (§2)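 RNA level was computed as RNA reads over DNA reads divided by a spiked-in non-cleaving sequence or by the top sequences, then scaled and log-transformed. Scaling was ×100 with log10, the top group was 25 sequences, and the threshold was ≥100 DNA reads. The reads came from HEK293T cells transfected at 4 µg per 6-well well with ribozyme switch library plasmids (mCherry, or eGFP in some ligand experiments). Total RNA was extracted with EDTA 72 h after transfection, with any ligand added 1 h before it.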

hypoxanthine [3] = variants of: B1; test: normalized RNA/DNA level without ligand (relative to sTRSVctl = 100) (log10 (% of sTRSVctl)); ligand: hypoxanthine (xanthine aptamer); higher = less ribozyme self-cleavage, higher mRNA level; conditions: HEK293T, reporter: mCherry (pCS4076), ligand present: no
Outline: as §2

hypoxanthine [4] = variants of: B1; test: FACS-Seq fitted mean relative fluorescence mCherry/BFP with ligand (log10 relative fluorescence); ligand: hypoxanthine (xanthine aptamer); ligand concentration (+) FACS-Seq: 5 mM; higher = higher reporter protein expression; conditions: HEK293T, ligand present: yes
Outline: as §1

Row | Variant | FACS-Seq fitted mean (log10) (hypoxanthine [1]) | normalized RNA/DNA level with ligand (log10) (hypoxanthine [2]) | normalized RNA/DNA level without ligand (log10) (hypoxanthine [3]) | FACS-Seq fitted mean (log10) (hypoxanthine [4])
1 | UUCUGG | 0.955 ± 0.026 | 1.931 ± 0.0039 | 1.8 ± 0.023 | 0.764 ± 0.068
2 | UUGAUA | 0.161 ± 0.022 | 1.93 ± 0.047 | 1.806 ± 0.01 | 0.277 ± 0.015
3 | CUGCGC | 0.135 ± 0.0047 | 2 ± 0.033 | 1.92 ± 0.08 | 0.18 ± 0.029
4 | CUGCGA | -0.182 ± 0.027 | 1.98 ± 0.052 | 1.822 ± 0.01 | -0.114 ± 0.022
5 | AUCUGG | 0.338 ± 0.0078 | 1.84 ± 0.023 | 1.426 ± 0.0099 | 0.609 ± 0.05
6 | AUCUGA | 0.724 ± 0.047 | 1.96 ± 0.049 | 1.83 ± 0.045 | 0.684 ± 0.016
7 | AUAUGU | 0.416 ± 0.0064 | 1.886 ± 0.0057 | 1.68 ± 0.054 | 0.511 ± 0.015
8 | GUGGAU | 0.3032 ± 0.0022 | 1.917 ± 0.019 | 1.74 ± 0.05 | 0.467 ± 0.024
9 | GUGGAA | 0.0876 ± 0.0021 | 1.88 ± 0.031 | 1.61 ± 0.0033 | -0.0768 ± 0.16
10 | GUGCGG | 0.103 ± 0.016 | 1.88 ± 0.033 | 1.38 ± 0.081 | 0.585 ± 0.033
11 | GUGCGU | 0.221 ± 0.019 | 1.972 ± 0.018 | 1.71 ± 0.044 | 0.479 ± 0.04
12 | AUGAUG | -0.144 ± 0.025 | 1.794 ± 0.0069 | 1.32 ± 0.027 | 0.458 ± 0.12
13 | AUGAUA | -0.373 ± 0.027 | 1.9 ± 0.036 | 1.736 ± 0.013 | -0.00691 ± 0.00025
14 | GUGCCG | 0.6409 ± 0.0059 | 1.912 ± 0.0077 | 1.55 ± 0.025 | 0.557 ± 0.12
15 | AUAUUC | 0.242 ± 0.014 | 1.92 ± 0.042 | 1.88 ± 0.051 | 0.166 ± 0.071
16 | AUAUUG | 0.2149 ± 0.0019 | 1.87 ± 0.053 | 1.53 ± 0.075 | 0.486 ± 0.011
17 | AUCAAG | 0.0695 ± 0.06 | 1.85 ± 0.043 | 1.5 ± 0.06 | 0.339 ± 0.047
18 | GUCUAG | 0.584 ± 0.051 | 1.87 ± 0.053 | 1.53 ± 0.044 | 0.604 ± 0.11
19 | GUCUAA | 0.326 ± 0.054 | 1.94 ± 0.048 | 1.801 ± 0.0053 | 0.458 ± 0.0071
20 | AUGGAC | 0.677 ± 0.01 | 1.8884 ± 0.00037 | 1.68 ± 0.028 | 0.843 ± 0.058
21 | AUGGAG | 0.0698 ± 0.0056 | 1.71 ± 0.037 | 1.208 ± 0.011 | 0.604 ± 0.023
22 | AUGGAA | 0.751 ± 0.027 | 1.88 ± 0.044 | 1.65 ± 0.043 | 0.749 ± 0.042
23 | UUGCCG | 0.171 ± 0.068 | 1.98 ± 0.039 | 1.83 ± 0.038 | 0.358 ± 0.006
24 | CUGAAG | 0.454 ± 0.056 | 1.92 ± 0.045 | 1.59 ± 0.032 | 0.669 ± 0.026

Row | Variant | FACS-Seq fitted mean (log10) (hypoxanthine [1]) | normalized RNA/DNA level with ligand (log10) (hypoxanthine [2]) | normalized RNA/DNA level without ligand (log10) (hypoxanthine [3]) | FACS-Seq fitted mean (log10) (hypoxanthine [4])
25 | CUGAAA | 0.56 ± 0.015 | 1.93 ± 0.027 | 1.74 ± 0.018 | 0.587 ± 0.036
26 | CUGAUA | 0.486 ± 0.026 | 1.877 ± 0.003 | 1.7 ± 0.055 | 0.601 ± 0.13
27 | UUGCGG | -0.08 ± 0.07 | 1.99 ± 0.062 | 1.91 ± 0.044 | -0.606 ± 0.083
28 | GUCCGG | 0.2204 ± 0.002 | 1.9355 ± 0.0013 | 1.64 ± 0.081 | 0.524 ± 0.11
29 | GUCAUG | 0.242 ± 0.025 | 1.9 ± 0.027 | 1.53 ± 0.025 | 0.491 ± 0.014
30 | AUGCGG | -0.0506 ± 0.036 | 1.752 ± 0.0084 | 1.31 ± 0.12 | 0.504 ± 0.014
31 | AUGCGA | 0.0429 ± 0.015 | 1.89 ± 0.076 | 1.556 ± 0.0057 | 0.395 ± 0.06
32 | CUCACU | 0.473 ± 0.021 | 1.99 ± 0.041 | 1.92 ± 0.05 | 0.419 ± 0.12
33 | AUCGCC | 0.477 ± 0.12 | 1.95 ± 0.028 | 1.91 ± 0.034 | -0.391 ± 0.0099
34 | CUGGGG | 0.345 ± 0.011 | 1.86 ± 0.05 | 1.479 ± 0.0059 | 0.484 ± 0.061
35 | AUCCUC | -0.169 ± 0.0024 | 2.021 ± 0.0097 | 1.97 ± 0.04 | -0.394 ± 0.056
36 | AUCCUG | 0.0565 ± 0.03 | 1.944 ± 0.013 | 1.54 ± 0.086 | 0.437 ± 0.048
37 | AUGCUA | 0.499 ± 0.086 | 1.966 ± 0.0068 | 1.788 ± 0.0045 | 0.706 ± 0.029
38 | AUGGGA | 0.29 ± 0.013 | 1.89 ± 0.043 | 1.56 ± 0.08 | 0.592 ± 0.042
39 | AUCAGA | -0.0827 ± 0.0075 | 1.9287 ± 0.00064 | 1.828 ± 0.0044 | 0.00695 ± 0.085
40 | AUCAGG | 0.386 ± 0.072 | 1.87 ± 0.01 | 1.48 ± 0.061 | 0.617 ± 0.048
41 | AUCAGU | 0.169 ± 0.016 | 1.885 ± 0.012 | 1.772 ± 0.0019 | 0.476 ± 0.069
42 | GUAUUG | -0.148 ± 0.011 | 1.882 ± 0.011 | 1.45 ± 0.1 | 0.209 ± 0.0066
43 | CUGAGG | 0.424 ± 0.071 | 1.91 ± 0.03 | 1.58 ± 0.025 | 0.466 ± 0.031
44 | CUGAGA | 0.665 ± 0.033 | 1.93 ± 0.036 | 1.77 ± 0.058 | 0.753 ± 0.0013
45 | GUGGGA | -0.0656 ± 0.016 | 1.9229 ± 0.0017 | 1.68 ± 0.053 | 0.178 ± 0.067
46 | GUGGGG | 0.0309 ± 0.01 | 1.841 ± 0.016 | 1.45 ± 0.029 | 0.399 ± 0.07
47 | GUCCCG | 0.415 ± 0.0031 | 1.91 ± 0.0099 | 1.64 ± 0.12 | 0.511 ± 0.028
48 | CUCGGG | 0.547 ± 0.055 | 1.923 ± 0.0029 | 1.657 ± 0.0028 | 0.46 ± 0.0048

Row | Variant | FACS-Seq fitted mean (log10) (hypoxanthine [1]) | normalized RNA/DNA level with ligand (log10) (hypoxanthine [2]) | normalized RNA/DNA level without ligand (log10) (hypoxanthine [3]) | FACS-Seq fitted mean (log10) (hypoxanthine [4])
49 | CUCGGU | -0.663 ± 0.081 | 1.94 ± 0.022 | 1.85 ± 0.041 | -0.785 ± 0.082
50 | CUCGGC | 0.2237 ± 0.00057 | 1.97 ± 0.12 | 1.92 ± 0.093 | 0.24 ± 0.018
51 | GUCCAG | 0.3111 ± 0.00085 | 1.863 ± 0.015 | 1.48 ± 0.054 | 0.723 ± 0.0074
52 | GUCCAA | 0.669 ± 0.0074 | 1.89 ± 0.065 | 1.79 ± 0.035 | 0.655 ± 0.08
53 | GUCCAC | -0.048 ± 0.034 | 1.94 ± 0.054 | 1.848 ± 0.0045 | 0.0349 ± 0.08
54 | CUGCAG | 0.429 ± 0.068 | 1.96 ± 0.02 | 1.73 ± 0.066 | 0.677 ± 0.016
55 | AUCUUG | 0.269 ± 0.0029 | 1.846 ± 0.015 | 1.59 ± 0.039 | 0.48 ± 0.04
56 | AUGGCG | 0.211 ± 0.015 | 1.894 ± 0.018 | 1.38 ± 0.075 | 0.691 ± 0.042
57 | UUGGCG | 0.088 ± 0.024 | 2.01 ± 0.034 | 1.87 ± 0.037 | 0.648 ± 0.069
58 | GUCGAC | 0.245 ± 0.035 | 1.92 ± 0.031 | 1.68 ± 0.033 | 0.428 ± 0.1
59 | GUCGAG | 0.248 ± 0.065 | 1.81 ± 0.062 | 1.41 ± 0.072 | 0.65 ± 0.073
60 | GUCGAA | 0.322 ± 0.039 | 1.92 ± 0.034 | 1.69 ± 0.021 | 0.22 ± 0.072
61 | CUGACC | 0.127 ± 0.042 | 1.99 ± 0.037 | 1.91 ± 0.026 | 0.416 ± 0.008
62 | CUGACA | 0.453 ± 0.025 | 1.89 ± 0.0074 | 1.821 ± 0.017 | 0.522 ± 0.12
63 | UUCCCG | 0.397 ± 0.063 | 1.919 ± 0.0045 | 1.83 ± 0.046 | 0.514 ± 0.064
64 | UUCGUA | 0.252 ± 0.0058 | 1.93 ± 0.064 | 1.87 ± 0.026 | 0.384 ± 0.035
65 | UUGACA | 0.459 ± 0.015 | 1.95 ± 0.046 | 1.87 ± 0.026 | 0.491 ± 0.048
66 | UUGACG | 0.486 ± 0.025 | 1.93 ± 0.057 | 1.831 ± 0.0085 | 0.5104 ± 0.00062
67 | CUCUGC | -0.384 ± 0.044 | 1.892 ± 0.0033 | 1.882 ± 0.0062 | -0.335 ± 0.067
68 | AUCAUU | 0.581 ± 0.01 | 1.96 ± 0.037 | 1.96 ± 0.029 | 0.691 ± 0.072
69 | AUCAUA | 0.467 ± 0.023 | 1.92 ± 0.035 | 1.798 ± 0.0029 | 0.562 ± 0.061
70 | GUCGGC | 0.485 ± 0.026 | 1.91 ± 0.025 | 1.68 ± 0.042 | 0.81 ± 0.023
71 | GUCGGG | 0.355 ± 0.068 | 1.882 ± 0.0031 | 1.58 ± 0.12 | -0.0447 ± 0.038
